Literature values, collected in US4786501A, “Cylindrical implants for the controlled release of growth hormones” (International Minerals & Chemical Corp., priority 1985, dated 1988).

B1: native PGH: native porcine growth hormone, protein containing 191 amino acid residues (protein, UniProt P01248 27-216, looked up)
Somatotropin: FPAMPLSSLFANAVLRAQHLHQLAADTYKEFERAYIPEGQRYSIQNAQAAFCFSETIPAPTGKDEAQQRSDVELLRFSLLLIQSWLGPVQFLSRVFTNSLVFGTSDRVYEKLKDLEEGIQALMRELEDGSPRAGQILKQTYDKFDTNLRSDDALLKNYGLLSCFKKDLHKAETYLRVMKCRRFVESSCAF
B2: BGH: bovine growth hormone purified from pituitary glands, protein containing 191 amino acid residues (protein, UniProt P01246 27-217, looked up)
Somatotropin: AFPAMSLSGLFANAVLRAQHLHQLAADTFKEFERTYIPEGQRYSIQNTQVAFCFSETIPAPTGKNEAQQKSDLELLRISLLLIQSWLGPLQFLSRVFTNSLVFGTSDRVYEKLKDLEEGILALMRELEDGTPRAGQILKQTYDKFDTNMRSDDALLKNYGLLSCFRKDLHKTETYLRVMKCRRFGEASCAF

What was measured:
young swine = conditions: field trials
cows = conditions: field trials, Machlin 1973

Molecule | growth rates (young swine) | feed-to-milk conversion (cows) | milk production (cows)
B1 | increased growth rates | – | –
B2 | – | improved feed-to-milk conversion | increased milk production
